Assay results taken from the supplement of paper PMC10126150.
± gives the standard deviation of the averaged measurements.

System: ATP
Test: switch fluorescence ratio, 500 uM ATP over buffer (Cy3 cluster intensity, sum of 5 cycles each) (fold (ratio)); higher = stronger signal-on switching upon ATP binding; sequences stand for … in TCGTCGGCAGCGTCAGATGTGTATAAGAGACAGTTTTTTTTTTTTTTTTTTTTTTTTT…TC
Conditions: aptamer strand: ATP DNA aptamer (quencher-CACCTGGGGGAGTATTGCGGAGGAAGG + anchor), 100 nM annealed; ATP concentration: 500 uM
Method in brief: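 Clusters with intensities outside 100-1000 RFU were excluded. The remaining Cy3-labelled switching-strand clusters on a modified Illumina MiSeq flow-cell had been annealed to 100 nM quencher-labelled ATP aptamer and imaged in selection buffer, then after 15 min with 500 uM ATP at 22 °C, for five cycles separated by NaOH stripping and re-annealing. The fluorescence ratio, averaged per switch-domain sequence, is each cluster's summed target-cycle Cy3 intensity over its summed buffer-cycle Cy3 intensity.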
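Note: ATP exposure 15 min at 22 °C before imaging.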

TAAAAATAGG
switch fluorescence ratio: 1 ± 0.022

TAAAACCAGG
switch fluorescence ratio: 1.21 ± 0.082

TAAAACCCTT
switch fluorescence ratio: 1.04 ± 0.076

TAAAACGCGG
switch fluorescence ratio: 1.07 ± 0.048

TAAAAGAAAA
switch fluorescence ratio: 1 ± 0.062

TAAAAGCGGG
switch fluorescence ratio: 1 ± 0.013

TAAAAGGAAT
switch fluorescence ratio: 0.993 ± 0.018

TAAAAGGATT
switch fluorescence ratio: 0.989 ± 0.042

TAAAAGGCAT
switch fluorescence ratio: 1.03 ± 0.028

TAAAAGGGGG
switch fluorescence ratio: 0.999 ± 0.034

TAAAAGTGGG
switch fluorescence ratio: 1.009 ± 0.003

TAAAAGTTAT
switch fluorescence ratio: 1.01 ± 0.02

TAAAATAAAT
switch fluorescence ratio: 1.016 ± 0.0018

TAAAATGTTG
switch fluorescence ratio: 1.03 ± 0.033

TAAACAGTTC
switch fluorescence ratio: 1.05 ± 0.073

TAAACCGGGT
switch fluorescence ratio: 1.05 ± 0.074

TAAACTACAT
switch fluorescence ratio: 1.006 ± 0.005

TAAACTATGG
switch fluorescence ratio: 1.02 ± 0.062

TAAAGAAATG
switch fluorescence ratio: 0.99 ± 0.033

TAAAGAAGGA
switch fluorescence ratio: 0.977 ± 0.042

TAAAGACGGG
switch fluorescence ratio: 0.978 ± 0.013

TAAAGATAGG
switch fluorescence ratio: 1.026 ± 0.0036

TAAAGCAGCT
switch fluorescence ratio: 0.965 ± 0.04

TAAAGCAGGG
switch fluorescence ratio: 1.01 ± 0.023

TAAAGCGAGC
switch fluorescence ratio: 1.03 ± 0.023

TAAAGCTTCG
switch fluorescence ratio: 1.27 ± 0.041

TAAAGGAAAT
switch fluorescence ratio: 1.09 ± 0.11

TAAAGGCAAG
switch fluorescence ratio: 1.02 ± 0.018

TAAAGGGGGG
switch fluorescence ratio: 1.01 ± 0.047

TAAAGGGTTG
switch fluorescence ratio: 1.02 ± 0.065

TAAAGGTACA
switch fluorescence ratio: 1.03 ± 0.018

TAAAGGTAGG
switch fluorescence ratio: 1.01 ± 0.041

TAAAGGTCGG
switch fluorescence ratio: 0.967 ± 0.028

TAAAGGTGTT
switch fluorescence ratio: 1.09 ± 0.095

TAAAGGTTGA
switch fluorescence ratio: 1.01 ± 0.012

TAAAGTAAGT
switch fluorescence ratio: 1.008 ± 0.01

TAAAGTAATT
switch fluorescence ratio: 0.991 ± 0.039

TAAAGTATAA
switch fluorescence ratio: 0.972 ± 0.026

TAAAGTCATA
switch fluorescence ratio: 1.01 ± 0.022

TAAAGTGAGC
switch fluorescence ratio: 1.028 ± 0.0051

TAAAGTGGGC
switch fluorescence ratio: 1.04 ± 0.038

TAAAGTGGT
switch fluorescence ratio: 0.986 ± 0.043

TAAAGTTACG
switch fluorescence ratio: 1.06 ± 0.032

TAAATACGGG
switch fluorescence ratio: 1.03 ± 0.016

TAAATACTAT
switch fluorescence ratio: 1.01 ± 0.018

TAAATAGTTT
switch fluorescence ratio: 0.993 ± 0.013

TAAATCGGTG
switch fluorescence ratio: 0.977 ± 0.039

TAAATTATTC
switch fluorescence ratio: 1.04 ± 0.037

TAAATTGATT
switch fluorescence ratio: 1.02 ± 0.014

TAAATTGTCG
switch fluorescence ratio: 0.994 ± 0.053

TAAATTTCGA
switch fluorescence ratio: 1.04 ± 0.018

TAAATTTGAG
switch fluorescence ratio: 0.991 ± 0.011

TAAATTTTCT
switch fluorescence ratio: 1.06 ± 0.015

TAAATTTTGG
switch fluorescence ratio: 1.008 ± 0.0096

TAACAATTTC
switch fluorescence ratio: 1.01 ± 0.02

TAACACCTCT
switch fluorescence ratio: 0.988 ± 0.068

TAACACGTCG
switch fluorescence ratio: 0.9947 ± 0.0081

TAACAGGGAG
switch fluorescence ratio: 1.012 ± 0.01

TAACAGGGGT
switch fluorescence ratio: 1.31 ± 0.43

TAACAGGTGA
switch fluorescence ratio: 2.17 ± 0.085

TAACAGTGGG
switch fluorescence ratio: 1.02 ± 0.046

TAACATCTTC
switch fluorescence ratio: 1.01 ± 0.079

TAACATGGCG
switch fluorescence ratio: 0.959 ± 0.11

TAACATGTTC
switch fluorescence ratio: 0.995 ± 0.031

TAACCAGTGG
switch fluorescence ratio: 1.07 ± 0.021

TAACCCGATT
switch fluorescence ratio: 0.997 ± 0.029

TAACCGAGAT
switch fluorescence ratio: 1.01 ± 0.043

TAACCTTAGC
switch fluorescence ratio: 1.29 ± 0.041

TAACGACCGC
switch fluorescence ratio: 1.24 ± 0.03

TAACGCATCT
switch fluorescence ratio: 1.149 ± 0.0052

TAACGGCCTC
switch fluorescence ratio: 1.04 ± 0.023

TAACGGGAGG
switch fluorescence ratio: 0.998 ± 0.017

TAACGGGTG
switch fluorescence ratio: 1.08 ± 0.018

TAACGGTGTG
switch fluorescence ratio: 0.962 ± 0.017

TAACGGTTTT
switch fluorescence ratio: 1.01 ± 0.033

TAACGTGAGT
switch fluorescence ratio: 0.988 ± 0.016

TAACTAGCGA
switch fluorescence ratio: 1.027 ± 0.0041

TAACTCGAAC
switch fluorescence ratio: 1.04 ± 0.023

TAACTTTTTT
switch fluorescence ratio: 1.02 ± 0.042

TAAGAAAGGA
switch fluorescence ratio: 0.997 ± 0.048

TAAGAAGATG
switch fluorescence ratio: 0.9808 ± 0.0014

TAAGAAGGGG
switch fluorescence ratio: 1.02 ± 0.023

TAAGAAGGGT
switch fluorescence ratio: 0.991 ± 0.024

TAAGAATGGG
switch fluorescence ratio: 0.9966 ± 0.0078

TAAGACGTTT
switch fluorescence ratio: 1.0122 ± 0.00032
